This is an account of results in the DeepSol protein solubility set.

A short description of this data set: soluble on expression in E. coli; label from the status in PepcDB or PDB records.
On to “MAHHHHHHMLCRNVSRSYSARRRCRPSVCVAFGALLVEPPQAAYLRRCAVSSRATATAASLSSDHASLSVCKRCEHTTTIATPPERVLTTKEQVDELMDSFAEACELITDAKESVGTTYFADDMEDAEKQTHDVLNRWESLQAALERKGTAEELQKVRNMYDLKIKQLKAELEAVREAGGAG”, for which the “soluble on expression in E. coli” value was “not soluble”.

“MSLNSTFSIVDLETTAPFKEGGHIIQIGISFVKNWKIINNFQTMVNPGVKIPEQIVDLTGIKNEDVENAPYFEDLARMIHDQLSGTVFVAHNVRYDFPYLNGEFARIKMRRLRLEYVDTVQLAQIVFPTMNSYKLDELVSKLGINLPRHHRADQDASATAQLFLKIHEHLQEFPQNTLNNLINHSKSLLGNTETIFQLSKGKRTFPGDRYGPFDIARLKKIDKGQLIKWIEAKKQSSLSKPLPATVLRPRQESFANILQSKITGKNNKIFSVFSRPRFGKTNAYLDLAVKIAAKGYKILIIEENYLRRRSTFQKSQSLFPENKDLFQIPITRKDFVSLDKLADAFLTEDNPSRQLAKLRVISWLLKSRTGNLNEFVNGFPEPLFNFFSDQDSPNKFDYFERSISSYTFPSIAITDLDSFLRTKNEFSREYNLFIFDVDKGVSNLIDMLPFFSKKIILFTQAQSYIKNWYSIRDFSDMNSVILSLGSELKEGHHHHHH”: the “soluble on expression in E. coli” value is recorded as “not soluble”.

Turning to “MMDASKELQVLHIDFLNQDNAVSHHTWEFQTSSPVFRRGQVFHLRLVLNQPLQSYHQLKLEFSTGPNPSIAKHTLVVLDPRTPSDHYNWQATLQNESGKEVTVAVTSSPNAILGKYQLNVKTGNHILKSEENILYLLFNPWCKEDMVFMPDEDERKEYILNDTGCHYVGAARSIKCKPWNFGQFEKNVLDCCISLLTESSLKPTDRRDPVLVCRAMCAMMSFEKGQGVLIGNWTGDYEGGTAPYKWTGSAPILQQYYNTKQAVCFGQCWVFAGILTTVLRALGIPARSVTGFDSAHDTERNLTVDTYVNENGEKITSMTHDSVWNFHVWTDAWMKRPDLPKGYDGWQAVDATSQERSQGVFCCGPSPLTAIRKGDIFIVYDTRFVFSEVNGDRLIWLVKMVNGQEELHVISMETTSIGKNISTKAVGQDRRRDITYEYKYPEGSSEERQVMDHAFLLLSSEREHRRPVKENFLHMSVQSDDVLLGNSVNFTVILKRKTAALQNVNILGSFELQLYTGKKMAKLCDLNKTSQIQGQVSEVTLTLDSKTYINSLAILDDEPVIRGFIIAEIVESKEIMASEVFTSFQYPEFSIELPNTGRIGQLLVCNCIFKNTLAIPLTDVKFSLESLGISSLQTSDHGTVQPGETIQSQIKCTPIKTGPKKFIVKLSSKQVKEINAQKIVLITK”, the “soluble on expression in E. coli” value is listed as “soluble”.

“MGSDKIHHHHHHMKMFKLEEQKLKDLGAIITTNEIKQQPELWLETYEIYKSNKEKLSRFIDTISNNHGQFRVIFTGAGTSAYIGNSILPYLKNKNDIRKYIFEAIPTTDIVSNPYDYLKKDIPTLLISFARSGNSPESLAALNLGNKIVDNFYHLAITCNPEGELAKMTKNDENNYLLLMPSKSNDEGFAMTGSFSCMMLSAMLIFDSLEDDVEKSYINAIIEMGRNVIDRKDEIHELINKDFDRVVYLGSGGLGGLTQEAQLKLLELTAGKISTVYDSPMGFRHGPKSFIDENTLVFEFVSNCLYTRKYDLDVLEEIKRDKIAKFTCAVSVENENNFSGTKFEFKEKYNKLPDVYLAMPYILFAQTIALFVSVKVGNKPDTPSATGTVNRVVKGVTIYEY”: the “soluble on expression in E. coli” value is “not soluble”.

Take “AVGNATQPLLVVEDSDEDFSTFQRLLQREGVVNPIYRCITGDQALDFLYQTGSYCNPDIAPRPAVILLDLNLPGTDGREVLQEIKQDEVLKKIPVVIMTTSSNPKDIEICYSYSISSYIVKPLEIDRLTETVQTFIKYWLDIVVLPEMG”: the “soluble on expression in E. coli” value was “soluble”.

In the case of “GSHMSQGSGEGEGVQLTAAQELMIQQLVAAQLQCNKRSFSDQPKVTPWPLGADPQSRDARQQRFAHFTELAIISVQEIVDFAKQVPGFLQLGREDQIALLKASTIEIMLLETARRYNHETECITFLKDFTYSKDDFHRAGLQVEFINPIFEFSRAMRRLGLDDAEYALLIAINIFSADRPNVQEPGRVEALQQPYVEALLSYTRIKRPQDQLRFPRMLMKLVSLRTLSSVHSEQVFALRLQDKKLPPLLSEIWDVHE”, the “soluble on expression in E. coli” value is “soluble”.

For the sequence “SMDSSALPDPGFQKITLSSSSEEYQKVWNLFNRTLPFYFVQKIERVQNLALWEVYQWQKGQMQKQNGGKAVDERQLFHGTSAIFVDAICQQNFDWRVCGVHGTSYGKGSYFARDAAYSHHYSKSDTQTHTMFLARVLVGEFVRGNASFVRPPAKEGWSNAFYDSCVNSVSDPSIFVIFEKHQVYPEYVIQYTTSSKPS”, the “soluble on expression in E. coli” value is recorded as “soluble”.

Consider “MSLSKIKEIRTKVYQWNGKTVPPQNNFCTNASDLLFEKSDAMGSFRFHEWLICEIETDDGVIGIGNAALAPQIAKKTIDTYLKPLVIGEDPFDYAYIWEKMYRRTHAWGRRGIGMVAISAIDIAIWDIMGKITNKPVFKLLGGRTKEKIPVYASKLYSQPIKALQKEAESYVKQGFKMFKMRFGWGPKDGPDGMKKNIALAEAVREVIGEDTDLMMECYMGWNLDYAKRMIPKLMKFNPRWLEEPVIADDIHGYEELNKMNMIPISGGEHEFNIFGFKQLLDLKAVSYIQYDNNRVGGFTAAQKINAIAEAHQVPVIPHAGQMHNYHLTMSNFNCPISEFFPVHDVEIGNELFYYIFEGDPAPKDGFIDLDDNKPGLGLTITDKYKSDFKIIEEGHHHHHH”, for which the “soluble on expression in E. coli” value is on record as “soluble”.

Turning to “LTDIRKKAATTLEKQIKQELNQLYMEKAIFSVHFESDKTELTESGQDSVVFYMSTNPGEPLKPLAKIASGGELSRMMLALKTIFSRHQGITSIIFDEVDTGVSGRVGQAIAEKIYAVSVGSQVLCISHLPQVAAMANHHYYITKKVQNKRTTTSVTILKGEQKVEEISRMIAGIEVTELTKQHAKEMIQQAEKVKQTY”, the “soluble on expression in E. coli” value was “not soluble”.

With “MGSDKIHHHHHHMSDIHKKIKKKQFAPLYLLYGTEAFFINETIKLITTEALEEEDREFNVVTYDLEEAYLEDVVEDARTLPFFGERKVLLIKSPLFLTSQKEKLEQNIKILEEYIGEPSPFSILVFVAPYEKLDERKKITKLLKKTADVVEANAMQVQDVQKWIVARADEVHVHIDHAAVSLLLELVGSNVTMLAKEMDKLTLYVGMGGDITPKLVAELVPKSVEQNVFALTEKVVKKDIAGAMQILDGLFTQQEEPIKLLALLVSQFRLLHQVKELQQRGYGQNQIASHIGVHPYRVKLAMNQTKFFSFEELKKVIMELAEADYSMKTGKMDKKLVLEFFLMRLNHM”, the “soluble on expression in E. coli” value is reported as “not soluble”.

For the sequence “MPLAKDLLHPLPAEEKRKHKLKRLVQHPNSYFMDVKCPGCYRITTVFSHAQGVVVCAGCATILCQPTGGRAKLTEGCSFRRKPQLEHHHHHH”, the “soluble on expression in E. coli” value is recorded as “not soluble”.

For “SGSSTGDLVTRIQSAHRFDHDALFRFAADNVSGFPTNPSQFKVSQFGHGQSNPTFLIEVGSGSSLKRYVLRKKPPGKLLQSAHAVDREFQVLRALGEHTQVPVPKVFCLCTDPAVIGTAFYIMEFMEGRIFIDPKLPNVAPERRNAIYRATAKALASLHSADVDAIGLEKYGRRGNYCKRQIDRWFKQYLASTSEGKPERNPKMFELVDWLRKNIPAEDSTGATSGLVHGDFRIDNLVFHPSEDRVIGIIDWELSTLGNQMCDVAYSCMHYIVNVQLDKEHVSEGFETTGLPEGMLSMPEFLLEYCSASGKPWPAANWKFYVAFSLFRAASIYTGVYSRWLMGNASAGERARNTGVQANELVESALGYIARENVLPEHPPSVQRDVSPSYESLVDGSGRFIPNRKVLELRQKLIKFMETHIYPMENEFSKLAQSDMRWTVHPQEEKLKEMAKREGLWNLFVPVDSAARARRELAATENKHNLSGKSFDQLFGEGLTNLEYGYLCEIMGRSVWAPQVFNCGAPDTGNMEVILRYGNKEQISEWLIPLLEGRIRSGFAMTEPQVASSDATNIECSIRRQGDSYVINGTKWWTSGAMDPRCRVLILMGKTDFNAPKHKQQSMILVDMRTPGISVKRPLTVFGFDDAPHGHAEISFENVVVPAKNILLGEGRGFEIAQGRLGPGRLHHCMRLIGAAERGMELMAQRALSRKTFGKFIAQHGSFVSDLAKLRVELEGTRLLVLEAADHLDKFGNKKARGILAMAKVAAPNMALKVLDTAIQVHGAAGVSSDTVLAHLWATARTLRIADGPDEVHLGTIGKLELQRASKL”, the “soluble on expression in E. coli” value is given as “soluble”.

On to “VAPLGLSVPSDVELPPTAKMHAIIERTASFVCRQGAQFEIMLKAKQARNSQFDFLRFDHYLNPYYKFIQKAMKEGRYTVLAENKSDEKKKSGVS”, for which the “soluble on expression in E. coli” value is on record as “soluble”.
